From patent US10280205B2, “Method for treating cancer with an activated T lymphocyte that selectively recognizes a cancer cell consisting of specific peptide” (immatics biotechnologies GmbH, priority 2015, dated 2019)

Experiments:
CD8+ T cells = test: In vitro T-cell priming assay with aAPCs loaded with peptide/MHC complexes and anti-CD28, multimer staining readout (in vitro immunogenicity); format: cell-based, human; settings: for Wells positive [%]: HLA-A*02 restricted peptides; for donors (positive donors, in vitro immunogenicity) / wells (positive wells, in vitro immunogenicity): HLA class I peptides; for donors (positive donors, in vitro immunogenicity): percentage of positive donors among evaluable; for wells (positive wells, in vitro immunogenicity): percentage of positive wells
Source text: In order to obtain information regarding the immunogenicity of the TUMAPs of the present invention, the inventors performed investigations using an in vitro T-cell priming assay based on repeated stimulations of CD8+ T cells with artificial antigen presenting cells (aAPCs) loaded with peptide/MHC complexes and anti-CD28 antibody.
In order to perform in vitro stimulations by artificial antigen presenting cells loaded with peptide-MHC complex (pMHC) and anti-CD28 antibody, the inventors first isolated CD8+ T cells from fresh HLA-A*02 leukapheresis products via positive selection using CD8 microbeads (Miltenyi Biotec, Bergisch-Gladbach, Germany) of healthy donors obtained from the University clinics Mannheim, Germany, after informed consent.
PBMCs and isolated CD8+ lymphocytes were incubated in T-cell medium (TCM) until use consisting of RPMI-Glutamax (Invitrogen, Karlsruhe, Germany) supplemented with 10% heat inactivated human AB serum (PAN-Biotech, Aidenbach, Germany), 100 U/ml Penicillin/100 μg/ml Streptomycin (Cambrex, Cologne, Germany), 1 mM sodium pyruvate (CC Pro, Oberdorla, Germany), 20 μg/ml Gentamycin (Cambrex). 2.5 ng/ml IL-7 (PromoCell, Heidelberg, Germany) and 10 U/ml IL-2 (Novartis Pharma, Nurnberg, Germany) were also added to the TCM at this step.
Generation of pMHC/anti-CD28 coated beads, T-cell stimulations and readout was performed in a highly defined in vitro system using four different pMHC molecules per stimulation condition and 8 different pMHC molecules per readout condition.
The purified co-stimulatory mouse IgG2a anti human CD28 Ab 9.3 (Jung et al., 1987) was chemically biotinylated using Sulfo-N-hydroxysuccinimidobiotin as recommended by the manufacturer (Perbio, Bonn, Germany). Beads used were 5.6 μm diameter streptavidin coated polystyrene particles (Bangs Laboratories, Illinois, USA).
pMHC used for positive and negative control stimulations were A*0201/MLA-001 (peptide […] (SEQ ID NO. 664) from modified Melan-A/MART-1) and A*0201/DDX5-001 ([…] from DDX5, SEQ ID NO. 665), respectively.
800.000 beads/200 μl were coated in 96-well plates in the presence of 4×12.5 ng different biotin-pMHC, washed and 600 ng biotin anti-CD28 were added subsequently in a volume of 200 μl. Stimulations were initiated in 96-well plates by co-incubating […] CD8+ T cells with 2×10^5 washed coated beads in 200 μl TCM supplemented with 5 ng/ml IL-12 (PromoCell) for 3 days at 37° C. Half of the medium was then exchanged by fresh TCM supplemented with 80 U/ml IL-2 and incubating was continued for 4 days at 37° C. This stimulation cycle was performed for a total of three times. For the pMHC multimer readout using 8 different pMHC molecules per condition, a two-dimensional combinatorial coding approach was used as previously described (Andersen et al., 2012) with minor modifications encompassing coupling to 5 different fluorochromes. Finally, multimeric analyses were performed by staining the cells with Live/dead near IR dye (Invitrogen, Karlsruhe, Germany), CD8-FITC antibody clone SK1 (BD, Heidelberg, Germany) and fluorescent pMHC multimers. For analysis, a BD LSRII SORP cytometer equipped with appropriate lasers and filters was used. Peptide specific cells were calculated as percentage of total CD8+ cells. Evaluation of multimeric analysis was done using the FlowJo software (Tree Star, Oreg., USA). In vitro priming of specific multimer+ CD8+ lymphocytes was detected by comparing to negative control stimulations.
Exemplary flow cytometry results after TUMAP-specific multimer staining for two peptides of the invention are shown in FIG. 3 together with corresponding negative controls.

HLA-A*02:01 = HLA-A*02:01 (Homo sapiens, UniProt P04439, D140Y/D185E/D98H/E176V/E277Q/G131W/G231S/I119V/I121R/I166T/I218V/L300P/L318F/N151K/N90K/P208A/P217A/Q86G/Q94H/R138H/R169H/T345S); test: MHC binding assay: UV-ligand exchange with beta2m ELISA (exchange yield); settings: binding to HLA-A*02:01, β2m ELISA
Procedure, shortened: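 Exchange yield reflects how much β2m remains bound, measured by ELISA: streptavidin capture of 100-fold diluted monomers, HRP anti-β2m at 37° C. for 1 h, TMB read at 450 nm. Monomers come from UV cleavage of a conditional HLA-A*02:01 ligand in the presence of the candidate peptide.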

Substance	Wells positive [%] (CD8+ T cells)	Peptide exchange (MHC class I binding score, peptide exchange yield) (HLA-A*02:01)	donors (positive donors, in vitro immunogenicity) (CD8+ T cells)	wells (positive wells, in vitro immunogenicity) (CD8+ T cells)
2 (SLLEADPFL; listed as Homo sapiens) [compound 2]	“+” (<20% = +)	“+++” (≥50 = +++)		
3 (SLASKLTTL; listed as Homo sapiens) [compound 3]	“+” (<20% = +)	“++++” (≥75% = ++++)		
8 (FTLGNVVGMYL; listed as Homo sapiens) [compound 8]	“+” (<20% = +)	“++++” (≥75% = ++++)		
11 (KIFEMLEGV; listed as Homo sapiens) [compound 11]	“+” (<20% = +)	“+++” (≥50 = +++)		
36 (YVLEDLEVTV; listed as Homo sapiens) [compound 36]	“+” (<20% = +)	“++” (≥20% = ++)		
38 (FLLEDDIHVS; listed as Homo sapiens) [compound 38]	“+” (<20% = +)	“+++” (≥50 = +++)		
48 (ALAELYEDEV; listed as Homo sapiens) [compound 48]	“+” (<20% = +)	“+++” (≥50 = +++)		
56 (KLYEGIPVLL; listed as Homo sapiens) [compound 56]	“+” (<20% = +)	“++++” (≥75% = ++++)		
60 (SLTIDGIYYV; listed as Homo sapiens) [compound 60]	“++++” (>=70% = ++++)	“++++” (≥75% = ++++)		
79 (SLFIGEKAVLL; listed as Homo sapiens) [compound 79]	“+” (<20% = +)	“+++” (≥50 = +++)		
113 (GLLPTPLFGV; listed as Homo sapiens) [compound 113]	“+” (<20% = +)	“+++” (≥50 = +++)		
118 (KLIDNNINV; listed as Homo sapiens) [compound 118]	“+” (<20% = +)	“+++” (≥50 = +++)		
141 (YLDFSNNRL; listed as Homo sapiens) [compound 141]	“+” (<20% = +)	“++” (≥20% = ++)		
598 (FLFPHSVLV; listed as Homo sapiens) [compound 598]		“+++” (≥50 = +++)		
599 (YLLNDASLISV; listed as Homo sapiens) [compound 599]		“+++” (≥50 = +++)		
600 (ALAAPDIVPAL; listed as Homo sapiens) [compound 600]		“+++” (≥50 = +++)		
601 (SAFPFPVTV; listed as Homo sapiens) [compound 601]		“+++” (≥50 = +++)		
602 (YLLEQIKLIEV; listed as Homo sapiens) [compound 602]		“++++” (≥75% = ++++)		
604 (SILDRDDIFV; listed as Homo sapiens) [compound 604]		“+++” (≥50 = +++)		
605 (KLYEAVPQL; listed as Homo sapiens) [compound 605]		“+++” (≥50 = +++)		
606 (ALWETEVYI; listed as Homo sapiens) [compound 606]		“+++” (≥50 = +++)		
607 (RLYSGISGLEL; listed as Homo sapiens) [compound 607]		“+++” (≥50 = +++)		

Substance	Wells positive [%] (CD8+ T cells)	Peptide exchange (MHC class I binding score, peptide exchange yield) (HLA-A*02:01)	donors (positive donors, in vitro immunogenicity) (CD8+ T cells)	wells (positive wells, in vitro immunogenicity) (CD8+ T cells)
608 (SLLSVSHAL; listed as Homo sapiens) [compound 608]		“+++” (≥50 = +++)		
609 (ALWKQLLEL; listed as Homo sapiens) [compound 609]		“+++” (≥50 = +++)		
610 (LLAPTPYIIGV; listed as Homo sapiens) [compound 610]		“+++” (≥50 = +++)		
611 (YLLDDGTLVV; listed as Homo sapiens) [compound 611]		“++++” (≥75% = ++++)		
612 (YLYNEGLSV; listed as Homo sapiens) [compound 612]		“+++” (≥50 = +++)		
613 (RLLPPGAVVAV; listed as Homo sapiens) [compound 613]		“+++” (≥50 = +++)		
614 (LLLPDQPPYHL; listed as Homo sapiens) [compound 614]		“+++” (≥50 = +++)		
615 (VLPPDTDPA; listed as Homo sapiens) [compound 615]		“++” (≥20% = ++)		
616 (VLIDEVESL; listed as Homo sapiens) [compound 616]		“+++” (≥50 = +++)		
617 (ALMYESEKVGV; listed as Homo sapiens) [compound 617]		“+++” (≥50 = +++)		
618 (VLFDSESIGIYV; listed as Homo sapiens) [compound 618]		“+++” (≥50 = +++)		
619 (ALQDRVPLA; listed as Homo sapiens) [compound 619]		“+++” (≥50 = +++)		
620 (KLLNKIYEA; listed as Homo sapiens) [compound 620]		“++++” (≥75% = ++++)		
621 (VLMDRLPSLL; listed as Homo sapiens) [compound 621]		“++++” (≥75% = ++++)		
622 (RLLGEEVVRVLQA; listed as Homo sapiens) [compound 622]		“+++” (≥50 = +++)		
623 (YLVEDIQHI; listed as Homo sapiens) [compound 623]		“+++” (≥50 = +++)		
635 (SLDSTLHAV; listed as Homo sapiens) [compound 635]		“+++” (≥50 = +++)		
648 (LLWGNAIFL; listed as Homo sapiens) [compound 648]			+++ (50%-69% = +++)	++ (20%-49% = ++)
652 (TLWYRAPEV; listed as Homo sapiens) [compound 652]			++++ (>=70% = ++++)	+++ (50%-69% = +++)
659 (ILFPDIIARA; listed as Homo sapiens) [compound 659]			+++ (50%-69% = +++)	+ (<20% = +)
662 (KIQEILTQV; listed as Homo sapiens) [compound 662]			+++ (50%-69% = +++)	+ (<20% = +)
663 (KIQEMQHFL; listed as Homo sapiens) [compound 663]			+++ (50%-69% = +++)	+ (<20% = +)
